Assay [1] has as its target PSA65-74 peptide presented by H-2Db (PSA65-74 H-2Db tetramer; EL4 cells pulsed with H-2Db peptide) (human) (UniProt P07288). As to the kind of experiment: PSA tetramer staining of splenocytes on day 6 after the boost, flow cytometry. Background: Flow cytometry measures light scatter and fluorescence of single cells or particles in a stream.
For assay [2] the target is unchanged.

On to “splenocytes (PSA-specific CD8+ T cells / CTLs) of C57BL/6 mice immunized with LmddA-LLO-PSA”, for which the percent PSA tetramer+CD8+CD62Llow cells in assay [1] is 23%.
Consider “splenocytes (PSA-specific CD8+ T cells / CTLs) of C57BL/6 mice immunized with LmddA-LLO-PSA (cells without a defined receptor)”, for which the percentage of CD8+CD62Llow IFN-γ secreting cells (intracellular cytokine staining after 5 h stimulation with PSA peptide) in assay [2] amounted to 200 fold.

The values above are taken from patent US20140335120A1.
